Measurements as given in patent publication US4605614A, “Method for measuring plasmin” (Nitto Boseki Co., Ltd., priority 1981, dated 1986).

Key:
Assay in all cases: Km, Vmax and Vmax/Km of substrates for plasmin (pig)
Type in all cases: biochemical, Porcine (pig)
[1] = substrate: NCCCC[C@H](NC(=O)[C@H](Cc1ccccc1)NC(=O)[C@H](N)CCCCNS(=O)(=O)c1cccc2ccccc12)C(=O)Nc1ccc(O)c(C(=O)O)c1; details: other: TABLE 2, CHA substrates, plasmin (pig), 2,6-xylenol 615 nm
[2] = substrate: NCCCC[C@H](NC(=O)[C@H](Cc1ccccc1)NC(=O)[C@H](N)CCCCNS(=O)(=O)c1ccc2ccccc2c1)C(=O)Nc1ccc([N+](=O)[O-])cc1; details: other: TABLE 1, PNA substrates, plasmin (pig), 405 nm
[3] = substrate: Cc1ccc(S(=O)(=O)NCCCC[C@@H](N)C(=O)N[C@@H](Cc2ccccc2)C(=O)N[C@@H](CCCCN)C(=O)Nc2ccc(O)c(C(=O)O)c2)cc1; details: other: TABLE 2, CHA substrates, plasmin (pig), 2,6-xylenol 615 nm
[4] = substrate: NCCCC[C@@H](N)C(=O)N[C@@H](Cc1ccccc1)C(=O)N[C@@H](CCCCN)C(=O)Nc1ccc(O)c(C(=O)O)c1; details: other: TABLE 2, CHA substrates, plasmin (pig), 2,6-xylenol 615 nm
[5] = substrate: Cc1ccc(S(=O)(=O)NCC(=O)N2CCC[C@H]2C(=O)N[C@@H](CCCCN)C(=O)Nc2ccc([N+](=O)[O-])cc2)cc1
[6] = substrate: NCCCC[C@H](NC(=O)[C@H](Cc1ccccc1)NC(=O)[C@H](N)CCC(=O)OCCc1ccccc1)C(=O)Nc1ccc([N+](=O)[O-])cc1; details: other: TABLE 1, PNA substrates, plasmin (pig), 405 nm
[7] = substrate: NCCCC[C@H](NC(=O)[C@H](Cc1ccccc1)NC(=O)[C@H](N)CCC(=O)OC1CCCCC1)C(=O)Nc1ccc([N+](=O)[O-])cc1; details: other: TABLE 1, PNA substrates, plasmin (pig), 405 nm
[8] = substrate: Cc1ccc(S(=O)(=O)NCCC[C@@H](N)C(=O)N[C@@H](Cc2ccccc2)C(=O)N[C@@H](CCCCN)C(=O)Nc2ccc(O)c(C(=O)O)c2)cc1; details: other: TABLE 2, CHA substrates, plasmin (pig), 2,6-xylenol 615 nm
[9] = substrate: CC(C)C[C@H](NC(=O)[C@H](N)C(C)C)C(=O)N[C@@H](CCCCN)C(=O)Nc1ccc(O)c(C(=O)O)c1; details: other: TABLE 2, CHA substrates, plasmin (pig), 2,6-xylenol 615 nm
[10] = substrate: Cc1ccc(C(=O)NCCCC[C@@H](N)C(=O)N[C@@H](Cc2ccccc2)C(=O)N[C@@H](CCCCN)C(=O)Nc2ccc([N+](=O)[O-])cc2)cc1; details: other: TABLE 1, PNA substrates, plasmin (pig), 405 nm
[11] = substrate: NCCCC[C@H](NC(=O)[C@H](Cc1ccccc1)NC(=O)[C@H](N)CCC(=O)NCCCCc1ccccc1)C(=O)Nc1ccc([N+](=O)[O-])cc1; details: other: TABLE 1, PNA substrates, plasmin (pig), 405 nm
[12] = substrate: CC(C)C[C@H](NC(=O)[C@H](N)C(C)C)C(=O)N[C@@H](CCCCN)C(=O)Nc1ccc([N+](=O)[O-])cc1
[13] = substrate: Cc1ccc(S(=O)(=O)Oc2ccc(C[C@@H](N)C(=O)N[C@@H](CC(C)C)C(=O)N[C@@H](CCCCN)C(=O)Nc3ccc(O)c(C(=O)O)c3)cc2)cc1; details: other: TABLE 2, CHA substrates, plasmin (pig), 2,6-xylenol 615 nm
[14] = substrate: NCCCC[C@H](NC(=O)[C@H](Cc1ccccc1)NC(=O)[C@H](N)CCCCNS(=O)(=O)c1ccc2ccccc2c1)C(=O)Nc1ccc(O)c(C(=O)O)c1; details: other: TABLE 2, CHA substrates, plasmin (pig), 2,6-xylenol 615 nm
[15] = substrate: Cc1ccc(S(=O)(=O)Oc2ccc(C[C@@H](N)C(=O)N[C@@H](Cc3ccccc3)C(=O)N[C@@H](CCCCN)C(=O)Nc3ccc(O)c(C(=O)O)c3)cc2)cc1; details: other: TABLE 2, CHA substrates, plasmin (pig), 2,6-xylenol 615 nm
[16] = substrate: NCCCC[C@H](NC(=O)[C@H](Cc1ccccc1)NC(=O)[C@H](N)CCCCNS(=O)(=O)c1ccccc1)C(=O)Nc1ccc(O)c(C(=O)O)c1; details: other: TABLE 2, CHA substrates, plasmin (pig), 2,6-xylenol 615 nm
[17] = substrate: Cc1ccc(CCOC(=O)CC[C@@H](N)C(=O)N[C@@H](Cc2ccccc2)C(=O)N[C@@H](CCCCN)C(=O)Nc2ccc([N+](=O)[O-])cc2)cc1; details: other: TABLE 1, PNA substrates, plasmin (pig), 405 nm
[18] = substrate: NCCCC[C@H](NC(=O)[C@H](Cc1ccccc1)NC(=O)[C@H](N)CCC(=O)NCCc1ccccc1)C(=O)Nc1ccc([N+](=O)[O-])cc1; details: other: TABLE 1, PNA substrates, plasmin (pig), 405 nm
[19] = substrate: NCCCC[C@H](NC(=O)[C@H](Cc1ccccc1)NC(=O)[C@H](N)CCC(=O)NCCCc1ccccc1)C(=O)Nc1ccc([N+](=O)[O-])cc1; details: other: TABLE 1, PNA substrates, plasmin (pig), 405 nm
[20] = substrate: CS(=O)(=O)NCCCC[C@@H](N)C(=O)N[C@@H](Cc1ccccc1)C(=O)N[C@@H](CCCCN)C(=O)Nc1ccc(O)c(C(=O)O)c1; details: other: TABLE 2, CHA substrates, plasmin (pig), 2,6-xylenol 615 nm
[21] = other: Porcine Plasmin, comparison table in description
[22] = other: TABLE 1, PNA substrates, plasmin (pig), 405 nm

B1: plasmin (pig) (Sus scrofa) (protein)
chain: RIYLSECKTGNGKNYRGTTSKTKSGVICQKWSVSSPHIPKYSPEKFPLAGLEENYCRNPDNDEKGPWCYTTDPETRFDYCDIPECEDECMHCSGEHYEGKISKTMSGIECQSWGSQSPHAHGYLPSKFPNKNLKMNYCRNPDGEPRPWCFTTDPNKRWEFCDIPRCTTPPPTSGPTYQCLKGRGENYRGTVSVTASGHTCQRWSAQSPHKHNRTPENFPCKNLEENYCRNPDGETAPWCYTTDSEVRWDYCKIPSCGSSTTSTEYLDAPVPPEQTPVAQDCYRGNGESYRGTSSTTITGRKCQSWVSMTPHRHEKTPGNFPNAGLTMNYCRNPDADKSPWCYTTDPRVRWEYCNLKKCSETEQQVTNFPAIAQVPSVEDLSEDCMFGNGKRYRGKRATTVAGVPCQEWAAQEPHRHSIFTPETNPRAGLEKNYCRNPDGDDNGPWCYTTNPQKLFDYCDVPQCVTSSFDCGKPKVEPKKCPARVVGGCVSIPHSWPWQISLRHRYGGHFCGGTLISPEWVLTAKHCLEKSSSPSSYKVILGAHEEYHLGEGVQEIDVSKLFKEPSEADIALLKLSSPAIITDKVIPACLPTPNYVVADRTACYITGWGETKGTYGAGLLKEARLPVIENKVCNRYEYLGGKVSPNELCAGHLAGGIDSCQGDSGGPLVCFEKDKYILQGVTSWGLGCALPNKPGVYVRVSRFVTWIEEIMRRN
Km [1]: 596 µM | Km [2]: 17.9 µM | Km [3]: 206 µM | Km [4]: 222 µM | Km [5, 21]: 278 µM | Km [5, 22]: 278 µM | Km [6]: 31.1 µM | Km [7]: 32.2 µM | Km [8]: 542 µM | Km [9]: 3210 µM | Km [10]: 15.5 µM | Km [11]: 45.4 µM | Km [12, 21]: 348 µM | Km [12, 22]: 348 µM | Km [13]: 1440 µM | Km [14]: 179 µM | Km [15]: 154 µM | Km [16]: 532 µM | Km [17]: 42.8 µM | Km [18]: 27.9 µM | Km [19]: 39.3 µM | Km [20]: 326 µM
